Experimental data taken from the supplement of paper PMC10567573.

B1: RPAIN (parent)
chain: ISEYEKSLQFDEKCLSIMLAEWEA

Variants of: B1
Experiment: protein stability index of a GFP-peptide fusion (GPS, HEK-293T) (PSI 1-6); higher = more stable
Details: c terminus: a fixed tail appended
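Also: lentivirally expressed fusions sorted by FACS into six bins by GFP to DsRed ratio, PSI derived from sequencing read proportions per bin multiplied by bin number.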

Variant | protein stability index
ISEYEKSLQRDEKCLSIMLAEWEA [F10R] | 2.96
ISEYEKSLQCDEKCLSIMLAEWEA [F10C] | 2.99
ISEYEKSLQVDEKCLSIMLAEWEA [F10V] | 2.45
ISEYEKSLQSDEKCLSIMLAEWEA [F10S] | 3.08
ISEYEKSLQLDEKCLSIMLAEWEA [F10L] | 2.07
ISEYEKSLQEDEKCLSIMLAEWEA [F10E] | 3.47
ISEYEKSLQGDEKCLSIMLAEWEA [F10G] | 2.81
ISEYEKSLQTDEKCLSIMLAEWEA [F10T] | 3.01
ISEYEKSLQWDEKCLSIMLAEWEA [F10W] | 2.88
ISEYEKSLQKDEKCLSIMLAEWEA [F10K] | 3.53
ISEYEKSLQFDQKCLSIMLAEWEA [E12Q] | 1.98
ISEYEKSLQFDYKCLSIMLAEWEA [E12Y] | 1.33
ISEYEKSLQFDWKCLSIMLAEWEA [E12W] | 1.85
ISEYEKSLQFDSKCLSIMLAEWEA [E12S] | 1.92
ISEYEKSLQFDVKCLSIMLAEWEA [E12V] | 1.26
ISEYEKSLQFDMKCLSIMLAEWEA [E12M] | 1.66
ISEYEKSLQFDKKCLSIMLAEWEA [E12K] | 1.75
ISEYEKSLQFDHKCLSIMLAEWEA [E12H] | 2.02
ISEYEKSLQFDCKCLSIMLAEWEA [E12C] | 1.9
ISEYEKSLQFDEKCLSIMLAIWEA [E21I] | 3.31
ISEYEKSLQFDEKCLSIMLATWEA [E21T] | 3.61
ISEYEKSLQFDEKCLSIMLARWEA [E21R] | 3.58
ISEYEKSLQFDEKCLSIMLAGWEA [E21G] | 1.37
ISEYEKSLQFDEKCLSIMLAAWEA [E21A] | 2.12

Variant | protein stability index
ISEYRKSLQFDEKCLSIMLAEWEA [E5R] | 1.32
ISEYIKSLQFDEKCLSIMLAEWEA [E5I] | 1.75
ISEYLKSLQFDEKCLSIMLAEWEA [E5L] | 2.02
ISEYTKSLQFDEKCLSIMLAEWEA [E5T] | 1.58
ISEYCKSLQFDEKCLSIMLAEWEA [E5C] | 2.24
ISEYPKSLQFDEKCLSIMLAEWEA [E5P] | 2.33
ISEYEKSLQFDEDCLSIMLAEWEA [K13D] | 1.76
ISEYEKSLQFDERCLSIMLAEWEA [K13R] | 2.05
ISEYEKSLQFDEACLSIMLAEWEA [K13A] | 2.1
ISEYEKSLQFDEMCLSIMLAEWEA [K13M] | 1.34
ISEYEKSLQFDEGCLSIMLAEWEA [K13G] | 1.8
ISEYEKSLQFDEKCLSIMLAEWEI [A24I] | 1.96
ISEYEKSLQFDEKCLSIMLAEWEG [A24G] | 2.11
ISEYEKSLQFDEKCLSIMLAEWEK [A24K] | 2.27
ISEYEKSLQFDEKCLSIMLAEWET [A24T] | 2
ISEYEKSLQFDEKCLSIMLAEWEE [A24E] | 1.87
ISEYEKSLQFDEKCLSIMLAEWEH [A24H] | 2.49
ISEYEKSLQFDEKCLSIMLAEWEF [A24F] | 3.13
ISEYEKSLQFDEKCLSIMLAEWEM [A24M] | 3.31
ISEYEKSLQFDEKCLSIMLAEWEL [A24L] | 1.59
ISEYEKSLQFDEKCLSIMLAEWEW [A24W] | 1.59
ISEYEKYLQFDEKCLSIMLAEWEA [S7Y] | 1.76
ISEYEKMLQFDEKCLSIMLAEWEA [S7M] | 1.56
ISEYEKGLQFDEKCLSIMLAEWEA [S7G] | 1.67

Variant | protein stability index
ISEYEKKLQFDEKCLSIMLAEWEA [S7K] | 1.38
ISEYEKLLQFDEKCLSIMLAEWEA [S7L] | 1.44
ISEYEKQLQFDEKCLSIMLAEWEA [S7Q] | 2.13
ISEYEKDLQFDEKCLSIMLAEWEA [S7D] | 1.93
ISEYEKWLQFDEKCLSIMLAEWEA [S7W] | 2
ISEYEKSLQFDEKCLSLMLAEWEA [I17L] | 1.85
ISEYEKSLQFDEKCLSAMLAEWEA [I17A] | 1.6
ISEYEKSLQFDEKCLSFMLAEWEA [I17F] | 1.8
ISEYEKSLQFDEKCLSVMLAEWEA [I17V] | 2.38
ISEYEKSLQFDEKCLSTMLAEWEA [I17T] | 2.12
ISEYEKSLQFDEKCLSSMLAEWEA [I17S] | 2.08
ISEYEKSLQFDEKCLSMMLAEWEA [I17M] | 1.97
ISEYEKSLQFDEKCLSYMLAEWEA [I17Y] | 1.2
ISEYEKSLQFDEKCLSCMLAEWEA [I17C] | 1.63
ISEYEKSLQFDEKCLSWMLAEWEA [I17W] | 1.47
ISEYEKSLQFHEKCLSIMLAEWEA [D11H] | 1.68
ISEYEKSLQFPEKCLSIMLAEWEA [D11P] | 1.99
ISEYEKSLQFKEKCLSIMLAEWEA [D11K] | 1.95
ISEYEKSLQFGEKCLSIMLAEWEA [D11G] | 2.15
ISEYEKSLQFREKCLSIMLAEWEA [D11R] | 1.77
ISEYEKSLQFDEKCLSIMLAEWKA [E23K] | 2.53
ISEYEKSLQFDEKCLSIMLAEWSA [E23S] | 2.66
ISEYEKSLQFDEKCLSIMLAEWCA [E23C] | 1.87
ISEYEKSLQFDEKCLSIMLAEWGA [E23G] | 4.39

Variant | protein stability index
ISEYEKSLQFDEKCLSIMLAEWQA [E23Q] | 2.06
ISEYEKSLQFDEKCLSIMLAEWVA [E23V] | 3.22
ISEYEKSLQFDEKCLSIMLAEWPA [E23P] | 1.65
ISEYEKSLQFDEKCLSIMLAEWIA [E23I] | 2.4
ISEYECSLQFDEKCLSIMLAEWEA [K6C] | 2.67
ISEYEWSLQFDEKCLSIMLAEWEA [K6W] | 1.79
ISEYEMSLQFDEKCLSIMLAEWEA [K6M] | 1.73
ISEYEVSLQFDEKCLSIMLAEWEA [K6V] | 1.16
ISEYEDSLQFDEKCLSIMLAEWEA [K6D] | 2.07
ISEYEHSLQFDEKCLSIMLAEWEA [K6H] | 1.97
ISEYEKSEQFDEKCLSIMLAEWEA [L8E] | 3.45
ISEYEKSYQFDEKCLSIMLAEWEA [L8Y] | 2.27
ISEYEKSWQFDEKCLSIMLAEWEA [L8W] | 2.9
ISEYEKSVQFDEKCLSIMLAEWEA [L8V] | 2.22
ISEYEKSFQFDEKCLSIMLAEWEA [L8F] | 1.9
ISEYEKSNQFDEKCLSIMLAEWEA [L8N] | 2.71
ISEYEKSSQFDEKCLSIMLAEWEA [L8S] | 2.68
ISEYEKSDQFDEKCLSIMLAEWEA [L8D] | 3.69
ISEYEKSPQFDEKCLSIMLAEWEA [L8P] | 2.97
ISEYEKSQQFDEKCLSIMLAEWEA [L8Q] | 3.1
ISEYEKSTQFDEKCLSIMLAEWEA [L8T] | 3.08
ISEYEKSAQFDEKCLSIMLAEWEA [L8A] | 2.63
